Measured values from PMC11591946 (2024).

Target: alpha-synuclein (Homo sapiens, UniProt P37840)
Assay: SPR

Row | Binder | Kd [µM]
1 | PYYYWKDPNGS (preformed fibrils) [PYYYWKDPNGS peptide] | 39.2
2 | ELAQMPYYYWKDPNGS (preformed fibrils) [ELAQMPYYYWKDPNGS peptide] | 133
3 | PYYYWKELAQM (preformed fibrils) [PYYYWKELAQM peptide] | 55.2
4 | EQALMPWIWYWKDPNGS (preformed fibrils) [EQALMPWIWYWKDPNGS peptide] | 28.4
5 | ELAQMGPEGMGLEDPNGS (preformed fibrils) [ELAQMGPEGMGLEDPNGS peptide] | 194
